# Tests used:
# ERα and ERβ = conditions: Barkham et al. (1998) Molecular Pharmacology, 54:105-112; cited from earlier work
# [1] = tested on: ZFP757-ERalpha LBD (synthetic/human); experiment: cell_activity; conditions: AnxA8 mRNA, 100 nM 17beta-estradiol vs untreated, HEK293
# [2] = tested on: ZFP734-FXR LBD (synthetic/human); experiment: cell_activity; conditions: Kip2 mRNA, 100 nM CDCA vs untreated, HEK293
# [3] = tested on: ZFP1727-TRbeta LBD (synthetic/human); experiment: cell_activity; conditions: GRP mRNA, 100 nM T3, HEK293
compound,measurement,setting,value
C[C@]12CC[C@@H]3c4ccc(O)cc4CC[C@H]3[C@@H]1CC[C@H]2O [17alpha-estradiol],activation of ERα and ERβ as known from the literature,ERα and ERβ,preferentially activates ERα
CGGGCGGCTG (double strand) [anxA8 site (ZFP757)],activity,[1],12 fold
GGGGCTGGGT (double strand) [kip2 site (ZFP734)],activity,[2],3.5 fold
GGTGGGGAGG (double strand) [GRP site (ZFP1727)],activity,[3],14 fold

# — patent US20040235002A1, “Multiplex screening assays” (Sangamo BioSciences, Inc., priority 2002, published 2004)
